The record followed here is a protein production outcome set (Wang et al. 2014).
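Note: failed if final PepcDB status was selected cloned or expressed and not failed if soluble or beyond.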

A short description of this series: label from the status in PepcDB records.
Regarding “MTMNPLPLQKEAEKRSPRLNSPFKSLMRIHWWMALAYLIVFCTGTLMVNLERGQFLRSELYDFHKSIGILTMALLTWRIFTLLQVWWRKYTKRPPKLSLAWWRTFTLHLSLYVFMGVIPISGFLLSNSFKANNVRFFSITLPDIFPQNEAMVEIGRNAHFWLAYTFLIFIFIHMLTYWKVIRANWRRWVNFIGKFQQQT”, the protein production entry is given as “failed”.
For “MSGLLPLLDFAGYVALLLWGVHMVQTGVQRAFGAALSIALGRALGTRLRAFASGLGITAALQSSTATGLMITGFAAGGVVALVPALAAMLGANVGTTLIVQLLSFDLTSLAPILILAGVWMFRRAAPGRTRDLGRVFIGLGLLLLSLHQLVQLFQPFETAPLLGVLLDALASQPVAAVLLAAALTWAAHSSVAVVVLVMSLASHGMVNPALAFALVLGANLGTAINPMIEGVTGDDPAARRLPLGNLLTRVAGVLAGIILLPWLQPWLSGLAGDPAHAVANFHTLFNVVIALVFLPILTPYAALLTRWLPKRADPNDPARPQYLDEWAHDVPAVALGNAAREALRMADMLQTLLLYARAGFKRDNRHRMVQARQLDSALDKLETAITTYLATLDQENMTREDHQRLDTILAFCSNIGHAGDIAYHGLLNHIGRLRKQGLLLSADQRASLDATLGELIANQRQAAALFVTDDLRQARALAGEKARFRALEAEAAETQLQQIKSGKVDAAEVGALYLDILRDLKGINSHVVGASAYPLLARHGELLPSRLRDAGN”, the protein production result is reported as “failed”.
Take “MEGISIYTSDNYTEEMGSGDYDSMKEPCFREENANFNKIFLPTIYSIIFLTGIVGNGLVILVMGYQKKLRSMTDKYRLHLSVADLLFVITLPFWAVDAVANWYFGNFLCKAVHVIYTVNLYSSVLILAFISLDRYLAIVHATNSQRPRKLLAEKVVYVGVWIPALLLTIPDFIFANVSEADDRYICDRFYPNDLWVVVFQFQHIMVGLILPGIVILSCYCIIISKLSHSKGHQKRKALKTTVILILAFFACWLPYYIGISIDSFILLEIIKQGCEFENTVHKWISITEALAFFHCCLNPILYAFLGAKFKTSAQHALTSVSRGSSLKILSKGKRGGHSSVSTESESSSFHSS”: the protein production entry is reported as “not failed”.
For “CPLLLRVFTTNNGRHHRMDEFSRGNVPSSELQIYTWMDATLKELTSLVKEVYPEARKKGTHFNFAIVFTDVKRPGYRVKEIGSTMSGRKGTDDSMTLQSQKFQIGDYLDIAIT”, the protein production result was “failed”.
Then “MTNMFSLLYPLISIVIGVVPLFIFKRNAYLLGIAAASYFTAIILKEIIQLSFRSFFITPTLPTYLSYGILTAIFEPGFAYLYLVLTKAKVNGQLGLSYGSYLAFYENAIFLGLLSLPNYLLLSVQFSVLSLALYGLERISSFILHLFWGFSSALSASKKNIKYLSVSMPYGMVDSVAAYYQLSHNISLVSTEIISLVVSISCLPIIVLWYKMDKRNQRLD”, with “failed”; and “MHLSRCRKCGRVMKGERIDPYRVKLTCSCGFSDFRTMTEKVKTVNPFFQKGGFSPLLESERGKMVLTMQRANREHLEIISLEEISMLVSSDFDLPEVLQHVTAKVATQLKVSVCNIYLREGDEVVLAATHGFDPAFIGKIRIKIGDGITGSVARDGQYISLSRASQDPRYRYFPELQEEKYNSMLSFPIGDKKEVYGVINLNTTSIRSFHEDEIYFVSIIANLILTAIKLRQQVASSRKAAEASA”, with “failed”.
The value for “MTAGLSAVVVGADRLGNIPDLLKGHNISITHHISGRDPSHQKKTLQLPSGTQLVILLTDFLGHNVMKTFRHAAQRGGIRVVACRRSVCSMQQALHQCGLCARSLEHHHHHH” was “not failed”; that for “MWCGRNAPPRRIRRHTASKSASTAAKGGVRRACPGIVSITRPFDRTRYGSQIPPMPAISIIARTRRKDDHGRVPIRLRISHRGEKRFIALPVKVLAKKWNGDKRRVTGTHPDAGEINTFLSDLERAAFSVISRLERAGTLITAQRIKDEIQEEREEVKSAPEDFLAFAREKVKGYKRRGQIGTFRSYRTTCRKFTAFIEETYGRDEVPFGALEAELFREFRTYCYEERGNSTNTVGRELGIMRTLVRHAMKEGKLSAYPFEHITIDSEPSQKELLTPEEVERIADLEIDEESPAAEARRWFLFAYYAGGMRFSDVATLQWQHIREGRSGRPRVCYKMKKTADTVGVPLIPEAKEILCRYEEGDGEDWVFPISEGIDPGNEEALHRRKCQRNSAANRHLKELAGQAGIEKRVTFHLSRNAAAWKLYQNVGDIYKVSKFLGHSNVEQTQDYIDGFVDESRDEDFIAAMT” was “failed”.
Take “MSQQVIIFDTTLRDGEQALQASLSVKEKLQIALALERMGVDVMEVGFPVSSPGDFESVQTIARQVKNSRVCALARCVEKDIDVAAESLKVAEAFRIHTFIATSPMHIATKLRSTLDEVIERAIYMVKRARNYTDDVEFSCEDAGRTPIADLARVVEAAINAGATTINIPDTVGYTMPFEFAGIISGLYERVPNIDKAIISVHTHDDLGLAVGNSLAAVHAGARQVEGAMNGIGERAGNCSLEEVIMAIKVRKDILNVHTAINHQEIWRTSQLVSQICNMPIPANKAIVGSGAFAHSSGIHQDGVLKNRENYEIMTPESIGLNQIQLNLTSRSGRAAVKHRMDEMGYKESEYNLDNLYDAFLKLADKKGQVFDYDLEALAFIGKQQEEPEHFRLDYFSVQSGSNDIATAAVKLACGEEVKAEAANGNGPVDAVYQAINRITDYNVELVKYSLTAKGHGKDALGQVDIVANYNGRRFHGVGLATDIVESSAKAMVHVLNNIWRATEVEKELQRKAQHNENNKETV”: the protein production entry is “not failed”.
With “MKDPNSQYQIDYVLLFILFAIGIVSCCAIASAQASLPPFLQNVNFVLKQIQWYFIGFIAIGVIMIIDFDRYQKIAWYLYSFAMVLLIGLELQVPGAVTIKGATAWYRLPGIGNFQPSEIMKLFLIIVIGRIIANHNEKYFSQTIHDDFLLLGKIFATSLPPLLLIAKEPDLGNTMVISAMLAAMILVSGIRWRFIFGLVSGTFVAGSTLIYIFFTHTDFFKAHILKEYQLNRFYGWLAPYKYDAQGYQLRQAFLATGSGEMQGKGWENGQVYFPEPHTDFIFTNVAEQFGFLGASVIISLFFLLIFRMIHIALESNDPFGSYICAGTIGMFTFQVFQNIGMTIGLLPITGITLPLMSYGGSSLLTYMIAIGFILNVRSRTKIFMFK”, the protein production entry is recorded as “failed”.
Turning to “MAEKLLHTAESDAGIGSWVLHMESGRLEWSQAVHDIFGTDSATFDATEDAYFQRVHPDDRARVRRELDRHVLGDRPFDVEYRIVRPDGQVRELLERNHIQRQASGQVDHLWGTVIDMTEHKQ”, the protein production entry is given as “not failed”.
As to “MINVLILGAASQISRFLIPDLLADKTVYLTLFARQAPQRLGQYAGESRVTLVDGDWNQEADIEQVMSNQDIVFLASSSLVGNQNVVTVMKHTGVQRLIVAGGLGIDDEVAGKFGNWNTRMMGDYTPYKQAAKVILDSGLNTTYLRMTWLYDENGNEKYQIVPEGQPLRGTQVTRQAVAKLVTAIVRQPSLYQYANIGVVEPGTEWDKPSFYLEHHHHHH”, the protein production entry is recorded as “failed”.
Take “MKIKAVGAYSAKQPLEPMDITRREPGPNDVKIEIAYCGVCHSDLHQVRSEWAGTVYPCVPGHEIVGRVVAVGDQVEKYAPGDLVGVGCIVDSCKHCEECEDGLENYCDHMTGTYNSPTPDEPGHTLGGYSQQIVVHERYVLRIRHPQEQLAAVAPLLCAGITTYSPLRHWQAGPGKKVGVVGIGGLGHMGIKLAHAMGAHVVAFTTSEAKREAAKALGADEVVNSRNADEMAAHLKSFDFILNTVAAPHNLDDFTTLLKRDGTMTLVGAPATPHKSPEVFNLIMKRRAIAGSMIGGIPETQEMLDFCAEHGIVADIEMIRADQINEAYERMLRGDVKYRFVIDNRTLTD”: the protein production result was “not failed”.
“MEISNRLKSISEVMDRCEIAADIGTDHAYLPIYLIKNNLCKRFIASDVNAGPLKKAINNINKYKLEDKIECRLGSGLNVLKLEEVDVVVIAGMGGNLIRDIIEERLDIFKKLKYAVLQPVQNPEILREYLIKRGFNIIEEQLCIDESKYYEIIKVCYDSKIEDKDDVYYEIGDKLIDMKHPLLKEYINYKIRKYDKIYKNISEESLNALSRKNELSIKIRKLKELLSCL”: the protein production entry is recorded as “failed”.
The value for “MRKRARIIYNPTSGKELFKRVLPDALIKLEKAGYETSAYATEKIGDATFEAERALESEYDLLIAAGGDGTLNEVVNGIAEQPNRPKLGVIPMGTVNDFGRALHLPSDIMGAIDVIIDGHTTKVDIGKMNNRYFINLAAGGKLTQVSYETPSKLKSIVGPFAYYIKGFEMLPQMKAVDVRIEYDDNIFQGEALLFLLGLTNSMAGFEKLVPDAKLDDGYFTLIIVEKANLAELGHIMTLASRGEHTKHPKVIYAKAKSINISSFTDMQLNVDGEYGGKLPANFLNLEQHIEIFTPKDVFNEELLENDTITDITPDKQ” was “not failed”; that for “MSLTKLYYEDQYIKEFKGEIIEVKEIDGKFHVLLDQTAFFPGGGGQMGDLGLIDGIKVLDVYEEEGKVYHVLEKEPKKLKNLQCELDWERRFDGMQQHLGQHLLSGCFYDLFGANTCGFHLGKEISTVDIVGFLDEKTIREAEKEANRLIFENLEVKSYAPSKKELKKVKTRRALPKTDEEIRIVEIVGLDLNACCGVHPRNTRDLQVIKIRRWEKHKNATRIEYVAGNRAVSEGHHHHHH” was “not failed”; that for “MQKIVIVANGAPYGSESLFNSLRLAIALREQESNLDLRLFLMSDAVTAGLRGQKPGEGYNIQQMLEILTAQNVPVKLCKTCTDGRGISTLPLIDGVEIGTLVELAQWTLSADKVLTF” was “not failed”.
Turning to “MKIFIVGSTGRVGKSLLKSLSTTDYQIYAGARKVEQVPQYNNVKAVHFDVDWTPEEMAKQLHGIDAIINVSGSGGKSLLKVDLYGAVKLMQAAEKAEVKRFILLSTIFSLQPEKWIGAGFDALKDYYIAKHFADLYLTKETNLDYTIIQPGALTEEEATGLIDINDEVSASNTIGDVADTIKELVMTDHSIGKVISMHNGKTAIKEALESLLEHHHHHH”, the protein production entry is “not failed”.
On to “MQSYAADLIALGLLFLTGLAADQLGARSRLPRVTLLLICGLLAGSAGFDLIPESLAALYPIISVIALSMVAFLLGGELSLRTLSGHGRAIVVISVMVVLVTQLTVSAGLAMIGMPLAAALMVGALATATDPAATLDVIRQGRASGDFPRRLKGIVAIDDAWGVLLFGLVAVLAGAVEGNGSAHGLLGGALVEIAGSVALGLAVGLPGASLTGRLSGGEPLRIEALGLVFLTAGLSLWLDLSYLIAGMTAGAVIVNLAHHHKRAFREIEHIEWPFMIVFFILAGASLDLSALWAVGPLLMGYVALRVLGRVLGGWAGAALAATARGERPWYGPALLPQAGVAIGMALIAGDLFPQYADMITALAIGATVVFELAGPLAAAYALRRVRDSRDQSAA”, for which the protein production entry is reported as “failed”.
On to “MPYLYLLLAIVSEVIGSAFLKSSDGFSKLYPTITTIISYLISFYFLSKTMQHLPLNIAYASWSGLGLVLTTIVSVLIFKEQINLISIISIILIIFGVVLLNTFGSSH”, for which the protein production result was “failed”.
Then “LQSKLSLPKIPNVIECFDISHLSGTATVGSMVQFRGGRPDKHNYRRFKIESVEGIDDFASIAEVVRRRYSRLLEDKHEMPDLIIIDGGKGQLSSAFQELRKLRVKVPIISIAKREEEIYVPGLKSPLPIKKDEKASLFVQEIRDEAHRFAINYNRLLRQKALIQK”, with “failed”; and “MKLERILPFSKTLIKQHITPESIVVDATCGNGNDTLFLAEQVPEGHVYGFDIQDLALENTRDKVKDFNHVSLIKDGHENIEHHINDAHKGHIDAAIFNLGYLPKGDKSIVTKPDTTIQAINSLLSLMSIEGIIVLVIYHGHSEGQIEKHALLDYLSTLDQKHAQVLQYQFLNQRNHAPFICAIEKIS”, with “failed”.
